Data on one substance can be found in paper PMC13480645.

This experiment concerns the target MERS-CoV S2 stem helix peptide (MERS-CoV). Put plainly: BLI. (In general: BLI is a label-free optical method that tracks binding on a fibre tip over time.)

Chain of S2P6 (antibody) (VH): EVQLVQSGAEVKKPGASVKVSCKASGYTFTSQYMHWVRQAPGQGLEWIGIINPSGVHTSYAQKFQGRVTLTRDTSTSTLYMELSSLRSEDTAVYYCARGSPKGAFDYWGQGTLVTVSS
Chain of S2P6 (antibody) (VL): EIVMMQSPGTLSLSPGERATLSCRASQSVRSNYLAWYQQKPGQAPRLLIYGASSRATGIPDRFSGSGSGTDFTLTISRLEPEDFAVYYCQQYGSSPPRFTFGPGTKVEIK

As for S2P6 (antibody), the Kd (in general, a measure of binding affinity in units of concentration) amounted to 0.723 nM and the kon (as a rule, the rate constant with which the complex forms) was found to be 315000 M⁻¹ s⁻¹.
